Data from paper PMC13035910, “Dbf4-dependent kinase finetunes Ino80 function at chromosome replication origins” (Nature Communications, 2026).
Values belong to the binder of their own block, whether it stands above or below them.

B3: Ino80 subunit of the INO80 complex (natural protein, UniProt P53115 1-1489, looked up)
chain: MSLAVLLNKEDKDISDFSKTTAGKSAKKNSRERVADVAPTRVLDKKQAYLSQLNSEFNRIKRRDSIEQLYQDWKFINLQEFELISEWNQQSKDWQFDNTNDSQDLHFKKLYRDMSMINKEWAEYQSFKNANLSDIINEKDADEDEEDDEDELEDGEEDMEEDEASTGRHTNGKSMRGNGIQKSRKKDAAAAAAIGKAIKDDQTHADTVVTVNGDENEDGNNGEDEDNDNDNENNNDNDNDNENENDNDSDNDDEEENGEEDEEEEEIEDLDEEDFAAFEEQDDNDDEDFNPDVEKRRKRSSSSSSSTKLSMNSLSLITSKKINKNITINSDRPKIVRELIKMCNKNKHQKIKKRRFTNCIVTDYNPIDSKLNIKITLKQYHVKRLKKLINDAKREREREEALKNNVGLDGNDLDNDEDGSESHKRRKLNNNTANGADDANKRKFNTRHGLPTYGMKMNAKEARAIQRHYDNTYTTIWKDMARKDSTKMSRLVQQIQSIRSTNFRKTSSLCAREAKKWQSKNFKQIKDFQTRARRGIREMSNFWKKNEREERDLKKKIEKEAMEQAKKEEEEKESKRQAKKLNFLLTQTELYSHFIGRKIKTNELEGNNVSSNDSESQKNIDISALAPNKNDFHAIDFDNENDEQLRLRAAENASNALAETRAKAKQFDDHANAHEEEEEEDELNFQNPTSLGEITIEQPKILACTLKEYQLKGLNWLANLYDQGINGILADEMGLGKTVQSISVLAHLAENHNIWGPFLVVTPASTLHNWVNEISKFLPQFKILPYWGNANDRKVLRKFWDRKNLRYNKNAPFHVMVTSYQMVVTDANYLQKMKWQYMILDEAQAIKSSQSSRWKNLLSFHCRNRLLLTGTPIQNSMQELWALLHFIMPSLFDSHDEFNEWFSKDIESHAEANTKLNQQQLRRLHMILKPFMLRRVKKNVQSELGDKIEIDVLCDLTQRQAKLYQVLKSQISTNYDAIENAATNDSTSNSASNSGSDQNLINAVMQFRKVCNHPDLFERADVDSPFSFTTFGKTTSMLTASVANNNSSVISNSNMNLSSMSSNNISNGKFTDLIYSSRNPIKYSLPRLIYEDLILPNYNNDVDIANKLKNVKFNIFNPSTNYELCLFLSKLTGEPSLNEFFRVSTTPLLKRVIERTNGPKNTDSLSFKTITQELLEVTRNAPSEGVMASLLNVEKHAYEREYLNCIQRGYHPNVSAPPVTIEVLGSSHVTNSINNELFDPLISQALSDIPAITQYNMHVKKGIPVEDFPKTGLFPEPLNKNFSSNISMPSMDRFITESAKLRKLDELLVKLKSEGHRVLIYFQMTKMMDLMEEYLTYRQYNHIRLDGSSKLEDRRDLVHDWQTNPEIFVFLLSTRAGGLGINLTAADTVIFYDSDWNPTIDSQAMDRAHRLGQTRQVTVYRLLVRGTIEERMRDRAKQKEQVQQVVMEGKTQEKNIKTIEVGENDSEVTREGSKSISQDGIKEAASALA
notes: Ino80, motor ATPase and scaffold subunit of the INO80 complex, budding yeast; endogenous protein with chromosomally inserted tag; Stood in the cross-linking assay as part of the whole purified complex; also called Ino80 scaffold; motor ATPase Ino80; source: endogenously expressed in S. cerevisiae (S288c background; wild-type strain and yPB5), purified within the INO80 or INO80-AA complex …

Experiments:
Test in all cases: cross-linking; DSBU cross-linking with mass spectrometry of the purified wild-type INO80 complex; 58 uM DSBU, 20 min, 30 C, 1200 rpm; 25 mM HEPES-NaOH pH 7.2, 300 mM NaCl, 5% glycerol, 1 mM DTT, 4 mM MgCl2; repeated with an independent batch
Settings in all cases: both partners purified
[1] = target: B3
[2] = target: T1, Ies1 subunit of the INO80 complex (S. cerevisiae (endogenous, S288c …, UniProt P43579 1-692))
T1 construct: Ies1, N-module subunit of INO80, budding yeast; endogenous protein; Stood in the cross-linking assay as part of the whole purified complex; source: endogenously expressed in S. cerevisiae (S288c background; wild-type strain and yPB5), purified within the INO80 or INO80-AA complex (anti-FLAG M2 resin, Mono Q)
T1 sequence (looked up): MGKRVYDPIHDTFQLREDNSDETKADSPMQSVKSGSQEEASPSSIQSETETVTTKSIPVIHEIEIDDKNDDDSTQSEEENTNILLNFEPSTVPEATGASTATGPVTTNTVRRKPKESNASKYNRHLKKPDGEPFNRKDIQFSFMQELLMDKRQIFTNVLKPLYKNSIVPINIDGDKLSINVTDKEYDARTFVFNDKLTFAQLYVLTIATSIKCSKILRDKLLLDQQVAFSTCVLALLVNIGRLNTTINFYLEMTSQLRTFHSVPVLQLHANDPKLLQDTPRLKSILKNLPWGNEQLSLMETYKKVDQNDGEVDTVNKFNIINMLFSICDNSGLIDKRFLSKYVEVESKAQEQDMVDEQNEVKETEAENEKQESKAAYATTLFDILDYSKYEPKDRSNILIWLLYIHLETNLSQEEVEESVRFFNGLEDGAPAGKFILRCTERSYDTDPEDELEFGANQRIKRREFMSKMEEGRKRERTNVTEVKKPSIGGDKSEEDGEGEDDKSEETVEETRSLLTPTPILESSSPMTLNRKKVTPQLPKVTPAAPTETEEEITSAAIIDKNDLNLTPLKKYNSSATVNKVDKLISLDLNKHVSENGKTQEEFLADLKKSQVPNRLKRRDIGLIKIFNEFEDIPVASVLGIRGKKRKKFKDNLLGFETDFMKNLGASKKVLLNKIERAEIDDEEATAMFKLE

[3] = target: T2, A-module of the INO80 complex (Arp4/Arp8/Act1(actin)/Taf14/Ies4) (S. cerevisiae (endogenous, S288c …, UniProt P80428 1-489; Q12386 1-881; P60010 1-375; P35189 1-244; Q08561 1-116)
T2 construct: Arp4, A-module subunit of INO80, budding yeast; endogenous protein; Arp8, A-module subunit of INO80, budding yeast; endogenous wild-type protein; Act1 (actin), A-module subunit of INO80, budding yeast; Taf14, A-module subunit of INO80, budding yeast; Ies4, A-module subunit of INO80, budding yeast; Stood in the cross-linking assay as part of the whole purified wild-type complex; also called ARP8 …

binding result [1]: binds
B1: N-module of the INO80 complex (Nhp10/Ies1/Ies3/Ies5) (complex)
chain 1: MSVEEKKRRLEELKDQNVVLGLAIQRSRLSVKRLKLEYGVLLERLESRIELDPELNCEDPLPTLASFKQELLTKPFRKSKTKRHKVKERDPNMPKRPTNAYLLYCEMNKERIRQNGSLDVTRDLAEGWKNLNEQDRKPYYKLYSEDRERYQMEMEIYNKKISNIDADDDKEENEQKIKNNEEGSSTKVADSKGGEDGSLVSSN
chain 2: MGKRVYDPIHDTFQLREDNSDETKADSPMQSVKSGSQEEASPSSIQSETETVTTKSIPVIHEIEIDDKNDDDSTQSEEENTNILLNFEPSTVPEATGASTATGPVTTNTVRRKPKESNASKYNRHLKKPDGEPFNRKDIQFSFMQELLMDKRQIFTNVLKPLYKNSIVPINIDGDKLSINVTDKEYDARTFVFNDKLTFAQLYVLTIATSIKCSKILRDKLLLDQQVAFSTCVLALLVNIGRLNTTINFYLEMTSQLRTFHSVPVLQLHANDPKLLQDTPRLKSILKNLPWGNEQLSLMETYKKVDQNDGEVDTVNKFNIINMLFSICDNSGLIDKRFLSKYVEVESKAQEQDMVDEQNEVKETEAENEKQESKAAYATTLFDILDYSKYEPKDRSNILIWLLYIHLETNLSQEEVEESVRFFNGLEDGAPAGKFILRCTERSYDTDPEDELEFGANQRIKRREFMSKMEEGRKRERTNVTEVKKPSIGGDKSEEDGEGEDDKSEETVEETRSLLTPTPILESSSPMTLNRKKVTPQLPKVTPAAPTETEEEITSAAIIDKNDLNLTPLKKYNSSATVNKVDKLISLDLNKHVSENGKTQEEFLADLKKSQVPNRLKRRDIGLIKIFNEFEDIPVASVLGIRGKKRKKFKDNLLGFETDFMKNLGASKKVLLNKIERAEIDDEEATAMFKLE
chain 3: MKFEDLLATNKQVQFAHAATQHYKSVKTPDFLEKDPHHKKFHNADGLNQQGSSTPSTATDANAASTASTHTNTTTFKRHIVAVDDISKMNYEMIKNSPGNVITNANQDEIDISTLKTRLYKDNLYAMNDNFLQAVNDQIVTLNAAEQDQETEDPDLSDDEKIDILTKIQENLLEEYQKLSQKERKWFILKELLLDANVELDLFSNRGRKASHPIAFGAVAIPTNVNANSLAFNRTKRRKINKNGLLENIL
chain 4: MPSKDPESVIDKEIRKISARNDELIKQDGTLKREYTTLLRKVSSVITVLNSIDDADTGSAETELPRLISQATVEKVPELKWYNDQISLITEKLEDDEDIEVPEELMDAYTLYKETPLLYNDTHTP
notes: Nhp10, N-module subunit of INO80, budding yeast; endogenous protein; Ies1, N-module subunit of INO80, budding yeast; Ies3, N-module subunit of INO80, budding yeast; Ies5, N-module subunit of INO80, budding yeast; Stood in the cross-linking assay as part of the whole purified complex; also called NHP10 module; N-module subunits; source: endogenously expressed in S. cerevisiae (S288c background; …)

binding result [2]: binds
B2: the rest of the N-module of the INO80 complex (Nhp10/Ies3/Ies5) (complex)
chain 1: MSVEEKKRRLEELKDQNVVLGLAIQRSRLSVKRLKLEYGVLLERLESRIELDPELNCEDPLPTLASFKQELLTKPFRKSKTKRHKVKERDPNMPKRPTNAYLLYCEMNKERIRQNGSLDVTRDLAEGWKNLNEQDRKPYYKLYSEDRERYQMEMEIYNKKISNIDADDDKEENEQKIKNNEEGSSTKVADSKGGEDGSLVSSN
chain 2: MKFEDLLATNKQVQFAHAATQHYKSVKTPDFLEKDPHHKKFHNADGLNQQGSSTPSTATDANAASTASTHTNTTTFKRHIVAVDDISKMNYEMIKNSPGNVITNANQDEIDISTLKTRLYKDNLYAMNDNFLQAVNDQIVTLNAAEQDQETEDPDLSDDEKIDILTKIQENLLEEYQKLSQKERKWFILKELLLDANVELDLFSNRGRKASHPIAFGAVAIPTNVNANSLAFNRTKRRKINKNGLLENIL
chain 3: MPSKDPESVIDKEIRKISARNDELIKQDGTLKREYTTLLRKVSSVITVLNSIDDADTGSAETELPRLISQATVEKVPELKWYNDQISLITEKLEDDEDIEVPEELMDAYTLYKETPLLYNDTHTP
notes: Nhp10, N-module subunit of INO80, budding yeast; endogenous protein; Ies3, N-module subunit of INO80, budding yeast; Ies5, N-module subunit of INO80, budding yeast; source: endogenously expressed in S. cerevisiae (S288c background; wild-type strain and yPB5), purified within the INO80 or INO80-AA complex (anti-FLAG M2 resin, Mono Q); copies: + +

Binder: B3
binding result [3]: binds
